# Target: T1, rCmeR C69S/C166S C69S;C166S (Campylobacter jejuni NCTC 11168?) (UniProt Q0PBE2)
# T1 sequence: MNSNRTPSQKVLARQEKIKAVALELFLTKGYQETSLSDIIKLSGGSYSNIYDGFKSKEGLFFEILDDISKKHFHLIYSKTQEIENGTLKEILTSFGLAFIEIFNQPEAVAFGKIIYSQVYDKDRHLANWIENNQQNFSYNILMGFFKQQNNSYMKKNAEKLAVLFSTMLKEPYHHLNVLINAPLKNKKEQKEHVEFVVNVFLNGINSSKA
# Experiment: EMSA
# Details: 20 mM HEPES pH 7.6, 1 mM EDTA, 10 mM ([…], room temperature 30 min
sequence,measurement,value
"AGGCTTTGTATTAGCTCCTATGCTTATTTAAATCAAACCCTAGGTTTTTCTCTCCTAGGGTTAAAATTTTTTCATTAGTTTTTAAGTATATACTACGCTATAATATTCATTTTTAATTTTCTTTAAGAAAGGAATTTAATGAAGATAAAAGTTGGGTTGATTTTTTCAGGTATTGCTTG (double strand) [cj0089 promoter (lipoprotein operon), 179 bp]",binding,binds more weakly
